Assay: soluble on expression in E. coli; label from the status in PepcDB or PDB records
In the case of “MAHHHHHHMFRSEAHFRMLANLRFLELQKLLLNRFQIFKNEEITVLKKGSMKTILYEWAEFLTKEQRATNMTHIPDEVLQSKRVADILRDDVECRWLVGRINVGAVSGVSGVSPPSPLSGAHLARDDAALSKVDQLHLDEYPDLFHYEYPQFPYDYYDKKKMSNFYSLMKFPYNDILNISKRIKREVSPPGGDAKEGEMRQMEEPRGGALESAGVDVVDDDFVSYSSNSYVYAPSEMETSKENYHE”, the “soluble on expression in E. coli” value is reported as “not soluble”. For “MAHHHHHHMFSEPVYLTIGDEYEKRAVKPSKSRGRNFIVPVKRSPHITDAVFQKSFISLAVGDEYLPPPPGGTFRQPAEKKPGEPQPLPFKPPSRPHKSCGSGSYYGTFNEKNPPKHEPETTIAEVKKSGANAPAGTVRKPNLYTNPGKKGTYGYTGLTLGRAGEVQYISDPVGCCSGQRTHSPRTQAPFSAAVKCGGCFDEGPHGFSTVYGMNKPLPMRKVPPQRVLPPMKPWRPAGALVREITRHPEYQEDPYDLKEKRLREERLKEQSHKPWFPCGTDAYRHIYTYPVPYNPPPVV”, the “soluble on expression in E. coli” value was “not soluble”. With “MAHHHHHHMFSSSTGAGAAAAAKPSAGPPSVALATVTVNEDPNIEVLLASKRIQKLTRATDALIARDFVLREEEAILDDLEAYIISLESEVRKAEFQTEELRSRSSLLRPGKRCAIAGENVELSALWNAYGSDMGYLVKRHSLRLAVLEKALATVSTRNPELPVPKPLPPPPVTKTSKTMSAMRDMSQRQKAPS” the “soluble on expression in E. coli” value was “not soluble”. In the case of “MAHHHHHHMFYVDACSQNYRMPNSAPVFSQGFPQPNRAPSLVSPNDVQNCTNDGLVNPHQAPLFTVSQQGSVVAASVLPRTVLWTANGMYGVTQMREGPEEGATRFVPSKSPDGTPVSAMQSMFLPPMQQQQQQQQQASNCPLLYILTTVAVPQTYPQTSLQEQKSQHVTPVTHQIISMKGPSVAPSQSIGINTLNPSCITNNSDAMQTCGSGSKVNVNVVCRHFIKSCCNRRKCRFLHTLNEAPLANI”, the “soluble on expression in E. coli” value is reported as “not soluble”. With “MAHHHHHHMGDHLGSRFTVIEQIGSGNYGSLYRVIDGEAATLADRIIATKKLQDTINHPHVLREVSAQRHAQKCSPHIVKLLHVVPRDRVRAALVLEYVPLDLRTFLNAFYCNQAKSSAPTWCATAGADELKSAAAPPCHIPLIYVRRMLRGLIEALHCLHARGIAHRDVKPENILVEPLGLGHPLRCVCPPMGSFGPAGEAAGCWVHAPHCPDPRQEERGVTRPMQPQGTLEPCQFFRRYSVALHHELTGDELASAIHRLHCETCRPCPCARAGAGKHAPQQHRDSSEMKTGNSCAQERQADAVDEESPANVDDGEADKLTAPMSPPLMPDVKLCDFGSARHIGTLRLRSAEEQREELTPGPTTPVYCAPEMMLLQRYGTSVDMWAVGAILFEMLTGEFFLGVGTLRSFSGDVVVRDDYCVMHRLNRMFRHLGTPSVEEWRCIAHPHYYPDEMLAHLPQVRDAALFRCLAQPIDTDGSFRRDSGDIKSNGDAKTADVQTDLNVRPSAGTCSCAQAPVNGTTDSHAARASAPPRDATAARHPLNVSDFLYQHIGESGVDFLRSLLRYDPAKRMTSAEALRHPFLSPEVANM” the “soluble on expression in E. coli” value was “not soluble”. For “MAHHHHHHMGEGTAAAPPHSQEPRLRRRPRQLTVRHVVHVQPTSYFAQFERRCRHDALLYSPFLREDRVQARPKTLPPSLHREVGEPGVYAAYNAYIFADVAGQHDPLHHRRVCAAADHGEEEAVAARVEAGGDVVVATNVSSPPRPDSSKSLSAVQLSLTPLLSFTLDDMADTADGDAGMGNRVECESGSTRIGEAHRCHPPPPLLHGTPPEAGLPLHKTWHLFTSYVQRHFTAFPTALVHRYHLHHLAPSLFPNVGAAALMQGAGGAGNATGDRAARSGTAVGVAISTEASGSGSAVRAARAKPNVSNSSSSSAEDVVEYWPYSLKLRCIPEATLQLPYKQHATAKKTTQAQQRAEMAGSARQAPSTVNASLGHDAATAAAVPSPHLPAPRKRERQVSSSGDSASAPAYTVHASASSSTATAATPRVLPPPAAAARTRPPSAPPRRVAVVDGVTSLLPYPTPASALALLSTTFLRSLRTSSVVAAAAAAAAGTGEVPATPSTLTESRADWHGGFAASHQRVDVPSTGMVGMGGGALGFLGTGSAVPSKYRNVSGTFLELHLPAYCFPGGGCPVKPLLHDDDSAHASGAAAVVAEDTPSATSASPPAGEAACARREGDAVLGFGSADSSTYSCGPATVSMDESQKTAPRRWSSAPLKMDSQQLRPWGGYPGLWRGQCRAARLSMRASPWR”, the “soluble on expression in E. coli” value was “soluble”. With “MAHHHHHHMGGCCKGARCPFSHELVQLPPKGVDASGGYFISGNVANYRAAASTSTASPSSRSFVGRWDDPTASSSTDGLSTLASPSSCCVTTGTSLSAEAKEWVGADSAATSSSANSATASITSVQSLRGAASPTFCVSSSSLRYRSAALRRTAQQVSPLPMPHSQRDSQPQPQQAQTQLQSQQSQKPQPSPPQPQLHQQHKRQYQPPPQPRSVANALSALLPNHSESSAAAETRHTSAAPAHPAATARTVSFTQSSNGSGSTTIAALASFFDMQRVSTGAPSATPSSAASQPSKVVFATRRDDQTPATAPTPATAAPPRYTAACITLAASNQRFDPSPSAPSIPTTATPAPAHGSSRSATTSQHMEAPLPRSREALATGAEHQTATVAKAHVTQSAAPPSAAAAPTSPPQYESRTASSAQTRVMPPAPRSQQQQAAHQAQQLRAQEEAQRQVQIQQQLHAQQQAQQLAQQQAQLQQFQQQIQPQKPPPPQQTVYMLTTSRPPTTSTPPHEGIVAPDQLPLGYTLAYAVSTPTPTASAATPILISEQPSAARPTYTLLSSCPPQSQLQSFQTAKGTVLYATPAQVLTQAAAPSENDAPRLILVNTDGTFTVLQAETLAATAGLGLSPTIMRAH” the “soluble on expression in E. coli” value was “not soluble”. In the case of “MAHHHHHHMGKNETDTDVLTSNVEVGSVLSQCAESRVHECNFYGYRAVCKHRFPKAYRHPALDQRLREQRTVREGRALARCLKNGVLAPTVFAVDRERCAIVMERIDGLTVREIFNHEQGNVAQGKTDVSFLVSFLLRGMGEVVGLLHNADIIHGDLTTSNFMCKRNFLERRLSTENLASNTSSRDSIVVLDFGLVMDKNSAEERAVDLYVLERALKSSHPFLEHVATRLVLEGYHRTVDPQKGSVTMARLEAVRARGRKRSMIG”, the “soluble on expression in E. coli” value is reported as “not soluble”. For “MAHHHHHHMGQAFMEDQGNSLVVWGSTGRRLQFSMQDLKMPASLRDTPHFHFYEKQWDAVASFWFNRVLKESALQHLSVEAIVELIRQDISKRWERRREEQSIYKKRKRLLQRSGPAGTPSASVLLTNVTTLDGYQAATEMEQRDLVTALVERVEDVANDKVESWQVLVDDASEQRPAKAARVEGTAATSGEHPENDADGASDFDDRVAVVLKLSSKEKAATTIAHLHGSRFDDRRVLCRFWSE”, the “soluble on expression in E. coli” value was “soluble”. In the case of “MAHHHHHHMGTLEAQTQGPGSMIGITQAEAVLTIELQRPERRNALNSQLVEELTQAIRKAGDGSARAIVLTGQGTAFCAGADLSGDAFAADYPDRLIELHKAMDASPMPVVGAINGPAIGAGLQLAMQCDLRVVAPDAFFQFPTSKYGLALDNWSIRRLSSLVGHGRARAMLLSAEKLTAEIALHTGMANRIGTLADAQAWAAEIARLAPLAIQHAKRVLNDDGAIEEAWPAHKELFDKAWGSQDVIEAQVARMEKRPPKFQGA”, the “soluble on expression in E. coli” value is reported as “soluble”. For “MAHHHHHHMGTLEAQTQGPGSMKGEPKVIERLNEALFLELGAVNQYWLHYRLLNDWGYTRLAKKEREESIEEMHHADKLIDRIIFLEGFPNLQTVSPLRIGQNVKEVLEADLKGEYDARASYKESREICDKLGDYVSKQLFDELLADEEGHIDFLETQLDLLAKIGGERYGQLNAAPADEAE”, the “soluble on expression in E. coli” value was “soluble”. For “MAHHHHHHMGTLEAQTQGPGSMNAAVIDSHSAQDYVVADIALAGWGRKELNIAETEMPGLVQIRDEYKAQQPLKGARIAGSLHMTIQTGVLIETLKALGADVRWASCNIFSTQDHAAAAIVEAGTPVFAFKGESLDEYWEFSHRIFEWPNGEFANMILDDGGDATLLLILGSKAEKDRSVIARPTNEEEVALFKSIERHLEIDGSWYSKRLAHIKGVTEETTTGVHRLYQMEKDGRLPFPAFNVNDSVTKSKFDNLYGCRESLVDGIKRATDVMIAGKIAVVAGYGDVGKGCAQSLRGLGATVWVTEIDPICALQAAMEGYRVVTMEYAADKADIFVTATGNYHVINHDHMKAMRHNAIVCNIGHFDSEIDVASTRQYQWENIKPQVDHIIFPDGKRVILLAEGRLVNLGCATGHPSFVMSNSFTNQTLAQIELFTRGGEYANKVYVLPKHLDEKVARLHLARIGAQLSELSDDQAAYIGVSKAGPFKPDHYRY”, the “soluble on expression in E. coli” value was “soluble”. For “MAHHHHHHMGTLEAQTQGPGSMNLDNVTGGDNVPKEINVIIEISQNSCPVKYEFDKEKNLFCVDRFLPTSMYYPCNYGFIPHTCAGDGDPVDVLVASRFPVMSGAVIRARPVGVLVMHDESGEDVKILAVPTHKVDQYYNNIKDYSDFPVSFLNSISHFFTFYKKLEEDKFVSVEGWKDVTVAEKLILSALIK”, the “soluble on expression in E. coli” value was “soluble”. With “MAHHHHHHMGTLEAQTQGPGSMQKNMVETEPVQGCRDFPPEAMRCRRHLFDVFHATAKTFGFEEYDAPVLESEELYIRKAGEEITEQMFNFITKGGHRVALRPEMTPSLARLLLGKGRSLLLPAKWYSIPQCWRYEAITRGRRREHYQWNMDIVGVKSVSAEVELVCAACWAMRSLGLSSKDVGIKVNSRKVLQTVVEQAGVTSDKFAPVCVIVDKMEKIPREEVEAQLAVLGLEPTVVDAITTTLSLKSIDEIAQRVGEEHEAVKELRQFFEQVEAYGYGDWVLFDASVVRGLAYYTGIVFEGFDREGKFRALCGGGRYDNLLTTYGSPTPIPCAGFGFGDCVIVELLQEKRLLPDIPHVVDDVVIPFDESMRPHALAVLRRLRDAGRSADIILDKKKVVQAFNYADRVGAVRAVLVAPEEWERGEVQVKMLREGTGKEEGGAERGFAVPLDRLV” the “soluble on expression in E. coli” value was “soluble”. In the case of “MAHHHHHHMGTTASTDSADSPFSVRSVDSSGGGGWRQEDPERFRKYMHLKSQADQWRQRHGHTPGATRGELTKNLIEEVYEEDFESVDHVQSMRLPPMVLKEMKDAVANEAERRCAETEKVMARCLQDKMWTSWKCQKERDALYQCVADRKEDNELLMAYRWKYNLGTFHGELIGRNNMMRRIWKEHFPDRDLPHPWVKDA”, the “soluble on expression in E. coli” value is reported as “not soluble”. With “MAHHHHHHMGYGGPRVEFYTANQYSNFAAAIDRENAARVRSILHRRNLPAEQEAQRQREAAFRAYERAQADEVARSHAEEAEALERRRVKDERAQRRLATKTRRRSLTAAEVASRRSRHACLCRLAEPRKYQEAMYGSGMIGGAMPHQSGRDGKLPTVGRNGAVYCAGVDRDRIVPSRPALEGTVPPWKGSYSTHHGPHKLDAQMAKEAAAYYCAHPAPQRSASEQDMRQQTLQSIAAEHSMAAQQDGADVGMADASGAKGRSSVADAVQWHRMGSDNVDDEAGSIFSHGSSNGPIAATGNMHLSTTSTKHSVQLHLSRYGGAMTAPRPWRPSKAASENLTLPELADRLVCIQMSKSVVR” the “soluble on expression in E. coli” value was “not soluble”. For “MAHHHHHHMHAVPKDDAEAPLSNTESRGRVALIDTSGYASDMNISAFVPQHAMKPYRVLAAMEIVRSLKIDAHCRTVVPPLVKVEELMAYHTDTYLANLGLHSCRSWLWNAETSKVFFSGDCPPVEGLMEHSIATASGTLMGAVLLNSGQVDVAVHWGGGMHHSKCGECSGFCYVNDIVLGILELLKCHDRVLYVDIDMHHGDGVDEAFCTSDRVFTLSLHKFGESFFPGTGHPRDVGYGRGRYYSMNLAVWDGITDFYYLGIFEHALHSIVRRYSPDAIVLQCGADSLAGDRLGLLNLSSFGHGQCVQAVRDLGIPMLALGGGGYTIRNVAKLWAYETSILTGHPLPPNTVLPVAEMPLSGWLFQDSPLLIVAQDRSNHVLPGLHCQRAYQMMTEQIDRHVPHIQPHPRLQKAFTAAEAADKQVEDGTTAVEDFK”, the “soluble on expression in E. coli” value was “not soluble”.

From the DeepSol protein solubility set
